Data published in patent publication US20070123465A1 (IPF PHARMACEUTICALS, published 2007).
Square brackets hold non-standard residues; d marks the D form. Ends that are not written are not given here. miniPEG = PEG spacer between peptide and cysteine; dTic = O=C(O)[C@H]1Cc2ccccc2CN1; NMeL = CN[C@@H](CC(C)C)C(=O)O

B1: VIR-574 (peptide)
peptide: LEAIPMSIPPEFLFGKPFVFKG
modifications: also: homodimer: C-termini linked to both amino groups of a C-terminal lysine core -K-G

Tests used:
[1] = target: T1, fusion peptide of HIV gp41 (HIV-1 strain NL4-3) (HIV-1 strain NL4-3); test: cell-based or functional assay
[2] = target: T1, fusion peptide of HIV gp41 (HIV-1 …); test: cell-based or functional assay; remark: listed apart in the source

Binder	IC50 NL4-3 [nM], anti-HIV activity (infection of P4-CCR5 indicator cells, beta-galactosidase reporter) [1] [nM]	IC50, inhibition of HIV infection, HIV strain NL4-3 [2] [nM]
B1	3080	–
[NMeL]EKIPCSIPPEFLFGKPFVF (also: homodimer via intermolecular disulfide between Cys6 of the two chains) [VIR-716]	182	–
LEAIPMSIPPEFLFGKPFVF-{miniPEG-Cys-NH2} (also: homodimer disulfide bonded through the C-terminal cysteine) [VIR-673]	664	–
LEAIPCGIP[dP]EV[dTic]FNKPFVF (also: homodimer via intermolecular disulfide Cys6-Cys6) [VIR-706]	74	–
LEAIPMCIPPEFLFGKPFVF (also: homodimer via intermolecular disulfide between Cys7 of the two chains) [VIR-577]	3270	–
[NMeL]EAIPCSIPPEFLFGKPFVF (also: homodimer via intermolecular disulfide between Cys6 of the two chains) [VIR-712]	195	–
LEAIPCSIPPEFLFGKPFVF (not fully specified) [VIRIP (virus inhibiting peptide)]	–	15000
[NMeL]EDIPCSIPPEFLFGKPFVF (also: homodimer via intermolecular disulfide between Cys6 of the two chains) [VIR-717]	635	–
LEKIPCSIP[dP]EVAFNKPFVF (also: homodimer via intermolecular disulfide Cys6-Cys6) [VIR-705]	484	–
